The values that follow come from patent US11680267B2, “Co-regulatory sequences based on tetracycline and Cumate” (Shenzhen Eureka Biotechnology Co., Ltd., priority 2020, dated 2023).

The test system of the series is 293T(T&C)-TRE3GCuO-Luc cells and 293T(T&C)-TRE3GCuO-BGI-Luc cells. Description: Luciferase assay in stable cell lines under different combinations of DOX and Cumate (Example 5). It is filed as cell-based. The following applies: for induced transcription activity: 24 hours, stable cell line. An excerpt: In this Example, stable cell lines, under complex regulation of Tet-ON and Cumate, TRE3GCuO or TRE3GCuO-intron, and with Luciferase as the reporter gene, were constructed. Then, based on these cell lines, induced transcription activities of the reporter gene under the following 4 induction conditions were detected: without inducer, Cumate only, DOX only or both DOX and Cumate inducers. In this Example, the Luciferase reporter gene was taken as an example, and in principle, the method of the present disclosure was not affected by the nucleic acid fragment of interest. The specific experimental methods were as follows:
293T cells were seeded at 1.5E+06 cells per 60 mm culture dish, and cultured in DMEM (Sigam, D6429) complete medium supplemented with 10% FBS (ExCell, 11H116) at 37° C. and 5% CO 2. After 24 hours of culture, transfection was carried out according to the PEI method. During transfection, 500 μL of transfection reagent which contained 5.5 ug of total plasmid was added to each 60 mm culture dish, and the mass ratio of total plasmid to PEI MAX (Polysciences, 24765-1) was 1:4; and thereby 3 Luciferase stable cell lines were constructed. The transfection plasmids were transfected at the 19BF075:19BF229:18BF019 molar ratio of 5:5:1 to obtain 293T(T&C)-CMV-BGI-Luc cells; the transfection plasmids were transfected at the 19BF075:19BF235:18BF019 molar ratio of 5:5:1 to obtain 293T(T&C)-TRE3GCuO-Luc cells; the transfection plasmids were transfected at the 19BF075:19BF237:18BF019 molar ratio of 5:5:1 to obtain 293T(T&C)-TRE3GCuO-BGI-Luc cells. The plasmid and PEI MAX were mixed uniformly, and then put into a culture dish after standing for 15 minutes. 3 hours after transfection, the medium was changed to a complete DMEM medium, and the transfection operation was completed. After 24 hours of transfection, the cells were digested with trypsin and all seeded in a 100 mm culture dish (Corning, 430167), and 200 μg/ml of hygromycin (Sangon Biotech A600230-0001) drug screening was performed for at least three passages. After the growth of cells under the pressure of drug screening was consistent with that of the original 293T cells, the above 3 cells were diluted to 1 cell per well by a limiting dilution method and seeded in a 96-well plate; when the cells grew to about 50% of the bottom area of the well, the wells with strong EGFP green fluorescence intensity and uniform luminescence were selected under the fluorescence microscope, and 3 independent clones of each cell were selected for the following experiments.
For the above 3 cells, 3 independent clones for each cell were seeded into a 96-well plate (Corning 3916) at 2.5E+04 cells per well, with 8 wells per clone, and the medium was 100 microliters of DMEM complete medium. After 24 hours of culture, the medium was replaced and the following reagents were added into the duplicate wells of the 8 wells for each cell: (1) the same amount of medium, (2) Cumate at a final concentration of 200 ug/ml, (3) DOX at a final concentration of 1 ug/ml, or (4) DOX at a final concentration of 1 ug/ml and Cumate at a final concentration of 200 ug/ml. After 24 hours of further culture, relative light unit RLU of each well was detected using a Steady-Glo® Luciferase Assay System (Promega, E2610) kit according to the instruction (Promega, FB037), wherein the detection instrument was a fluorescence microplate reader (Perkin Elmer Victor V).

B1: TRE3GCuO: Tet-On (7xTetO of TRE3G) and Cumate complex response element, CuO 50 bp behind the TATA box (SEQ ID NO: 23) (nucleic acid)
DNA: TCCCTATCAGTGATAGAGAACGTATGAAGAGTTTACTCCCTATCAGTGATAGAGAACGTATGCAGACTTTACTCCCTATCAGTGATAGAGAACGTATAAGGAGTTTACTCCCTATCAGTGATAGAGAACGTATGACCAGTTTACTCCCTATCAGTGATAGAGAACGTATCTACAGTTTACTCCCTATCAGTGATAGAGAACGTATATCCAGTTTACTCCCTATCAGTGATAGAGAACGTATTAGGCGTGTACGGTGGGCGCCTATAAAAGCAGAGCTCGTTTAGTGAACCGTCAGATCGCCTGGAGCAATTCCACATACAAACAGACCAGATTGTCTGTTTGTT
modifications: TRE3GCuO50 response element sequence
B1: the induced transcription activity (adding both DOX 1 ug/ml and Cumate 200 ug/ml) is 7.54E+06 RLU; the induced transcription activity (only adding Cumate 200 ug/ml) was determined as 1.36E+04 RLU; the induced transcription activity (only adding DOX 1 ug/ml) amounted to 2.14E+05 RLU. Also, the “induced transcription activity relative to no induction” value was 2381.05 times (adding both DOX and Cumate); 4.31 times (only adding Cumate); 67.66 times (only adding DOX). Further, the “induced transcription activity relative to only adding Cumate” value is, setting by setting: (adding both DOX and Cumate) 552.99 times; (only adding DOX) 15.71 times. Moreover, the “induced transcription activity relative to only adding DOX” value (adding both DOX and Cumate) is 35.19 times. The “maximum induced transcription activity as % of that of CMV promoter” value (both DOX and Cumate inducers added) is given as 47.84%.
